The results in this text go back to patent US20060177932A1 (published 2006).

The data set deals with the molecule itself. Kind of data set: not described (homodimerisation stated in Example 7).

B1: STAT5A 1*7 (other)
chain: MAGWIQAQQLQGDALRQMQVLYGQHFPIEVRHYLAQWIESQPWDAIDLDNPQDRGQATQLLEGLVQELQKKAEHQVGEDGFLLKIKLGHYATQLQNTYDRCPMELVRCIRHILYNEQRLVREANNCSSPAGVLVDAMSQKHLQINQRFEGLRLITQDTENELKKLQQTQEYFIIQYQESLRIQAQFAQLGQLNPQERMSRETALQQKQVSLETWLQREAQTLQQYRVELAEKHQKTLQLLRKQQTIILDDELIQWKRRQQLAGNGGPPEGSLDVLQSWCEKLAEIIWQNRQQIRRAEHLCQQLPIPGPVEEMLAEVNATITDIISALVTSTFIIEKQPPQVLKTQTKFAATVRLLVGGKLNVHMNPPQVKATIISEQQAKSLLKNENTRNECSGEILNNCCVMEYHQATGTLSAHFRNMSLKRIKRADRRGAESVTEEKFTVLFESQFSVGSNELVFQVKTLSLPVVVIVHGSQDHNATATVLWDNAFAEPGRVPFAVPDKVLWPQLCEALNMKFKAEVQSNRGLTKENLVFLAQKLFNISSNHLEDYNSMSVSWSQFNRENLPGWNYTFWQWFDGVMEVLKKHHKPHWNDGAILGFVNKQQAHDLLINKPDGTFLLRFSDSEIGGITIAWKFDSPDRNLWNLKPFTTRDFSIRSLADRLGDLNYLIYVFPDRPKDEVFAKYYTPVLAKAVDGYVKPQIKQVVPEFVNAFTDAGASATYMDQAPSPVVCPQPHYNMYPPNPDPVLDQDGEFDLDESMDVARHVEELLRRPMDSLDARLSPPAGLFTSARSSLS
notes: Expressed from the retrovirus vector GCsam-IRES-EGFP; also called STAT5 1*7; active STAT5 variant
Consider B1, for which the binding result is “binds”.
